Measurements from patent publication US20060029601A1 (E R SQUIBB AND SONS L L C, published 2006).
Blank lines part the entries; values can stand above or below the binder they belong to.

Key:
[1] = target: T1, human interferon alpha receptor 1 (IFNAR-1) on cells (Daudi, U937, human peripheral blood mononuclear cells) (human, UniProt P17181 28-557); assay: cell-based or functional assay
T1 sequence (looked up): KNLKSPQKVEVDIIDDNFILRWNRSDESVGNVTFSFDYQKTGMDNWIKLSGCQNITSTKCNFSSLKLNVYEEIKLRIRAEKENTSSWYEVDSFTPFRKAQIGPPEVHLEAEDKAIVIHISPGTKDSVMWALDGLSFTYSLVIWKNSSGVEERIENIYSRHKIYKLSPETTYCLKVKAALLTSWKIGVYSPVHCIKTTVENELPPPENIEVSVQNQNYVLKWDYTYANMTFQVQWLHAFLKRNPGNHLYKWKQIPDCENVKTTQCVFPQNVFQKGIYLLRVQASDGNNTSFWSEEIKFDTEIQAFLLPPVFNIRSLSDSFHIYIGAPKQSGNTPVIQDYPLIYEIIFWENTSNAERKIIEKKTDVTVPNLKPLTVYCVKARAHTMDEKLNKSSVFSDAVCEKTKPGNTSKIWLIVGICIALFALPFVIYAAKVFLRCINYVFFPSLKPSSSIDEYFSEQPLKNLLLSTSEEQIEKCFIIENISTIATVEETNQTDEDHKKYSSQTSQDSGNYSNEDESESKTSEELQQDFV

[2] = target: T1, human interferon alpha receptor 1 …; assay: cell-based or functional assay; remark: listed apart in the source
[3] = target: T2, soluble CHO-derived human IFNAR-1 (human, UniProt P17181 28-436); assay: cross-competition ELISA on plate-coated soluble CHO-derived human IFNAR-1; titrated antibody against 64G12 at 0.3 ug/mL as competitor, detected with anti-mouse IgG (Fc) peroxidase, O.D. 415 nm
T2 construct: extracellular domain; also called soluble IFNAR-1
T2 sequence (looked up): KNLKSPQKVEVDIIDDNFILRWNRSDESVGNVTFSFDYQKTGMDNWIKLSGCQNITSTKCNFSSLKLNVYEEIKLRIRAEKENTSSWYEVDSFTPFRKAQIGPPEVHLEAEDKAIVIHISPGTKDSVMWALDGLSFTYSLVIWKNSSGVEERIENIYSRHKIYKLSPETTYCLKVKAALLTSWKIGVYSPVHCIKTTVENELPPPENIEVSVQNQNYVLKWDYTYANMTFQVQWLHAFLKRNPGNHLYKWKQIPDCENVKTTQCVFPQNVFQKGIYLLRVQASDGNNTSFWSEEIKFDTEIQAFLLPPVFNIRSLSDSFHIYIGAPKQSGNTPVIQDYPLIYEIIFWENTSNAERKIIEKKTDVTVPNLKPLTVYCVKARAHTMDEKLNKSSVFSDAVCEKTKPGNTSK

Cell Proliferation (Daudi) EC50, blocking of IFN omega [1]: 0.3 nM
B1: human monoclonal antibody 11E2 (antibody, IgG1, V domains shown)
VH: EVQLVQSGAEVKKPGESLKISCKGSGYIFTNYWIAWVRQMPGKGLESMGIIYPGDSDIRYSPSFQGQVTISADKSITTAYLQWSSLKASDTAMYYCARHDIEGFDYWGRGTLVTVSS
VL: EIVLTQSPGTLSLSPGERATLSCRASQSVSSSFFAWYQQKPGQAPRLLIYGASSRATGIPDRLSGSGSGTDFTLTITRLEPEDFAVYYCQQYDSSAITFGQGTRLEIK

Cell Proliferation (Daudi) EC50, blocking of IFN omega [1]: 0.3 nM
B2: human monoclonal antibody 9D4 (antibody, IgG1, V domains shown)
VH: B1 VH
VL: B1 VL

Cell Proliferation (Daudi) EC50, blocking of IFN omega [1]: 1.4 nM
B4: human monoclonal antibody 4G5 (antibody, IgG1, V domains shown)
VH: QVQLQQWGAGLLKPSETLSLTCAVYGGSFSNYYWSWIRQPPGKGLEWIGEIILSGSTNYNPSLKSRVTISVDTSKNQFSLNLTSVTAADTAVYYCARESKWGYYFDSWGQGTLVTVSS
VL: AIQLTQSPSSLSASVGDRVTITCRATQDISIALVWYQQKPGKAPELLIYDASGLGSGVPSRFSGSGSGTDFTLTISSLQPEDFATYYCQQFNSYPYTFGQGTKLEIK

The next lines start with the binder.

B3: human monoclonal antibody 3F11 (antibody, IgG1, V domains shown)
VH: QVQLQQWGAGLLKPSETLSLTCAVYGGSFSGYFWSWIRQPPGKGLEWIGEIDHSGKTNYNPSLKSRVTISVDTSKNQVSLKLSSVTAADTAVYYCARESKYYFGLDVWGQGTTVTVTS
VL: AIQLTQSPSSLSASVGDRVTITCRASQGIYSVLAWYQQKPGKTPKLLIYDASRLESGVPSRFSGSGSGTDFTLTISSLQPEDFATYYCQQFNSYITFGQGTRLEIK
Cell Proliferation (Daudi) EC50, blocking of IFN omega [1]: 0.6 nM
Cell Proliferation (Daudi) EC50, blocking of IFN alpha 2b [2]: 0.3 nM
ISRE-RG Reporter (U937) EC50, blocking of IFN alpha 2b [2]: 1.2 nM

B5: murine anti-IFNAR-1 antibody 64G12 (ECACC Deposit No. 92022605) (antibody, V domains shown)
VH: QVTLKESGPGILKPSQTLSLTCSFSGFSLSTSGMGIGWIRQPSGKGLEWLAHIWWDDDKYYNPSLKSQLTISRDTSTNQVFLNITSVDTVDTATYYCGRNYYPYDAWFDYWGQGTLVTVS
VL: EIVLTQSPTTMAASPGEKITITCSASSSINSNHLHWYQQKPGFSPKVLIYRTSILASGVPTRFSGSGSGTSYSLTIGTMEAEDVATYYCQQGSNIPFTFGSGTELEIKR
Cell Proliferation (Daudi) EC50, blocking of IFN omega [1]: 5.5 nM
Cell Proliferation (Daudi) EC50, blocking of IFN alpha 2b [2]: 3.1 nM
ISRE-RG Reporter (U937) EC50, blocking of IFN alpha 2b [2]: 6 nM
IC50 (read off the curve) [3]: ~0.7 µg/mL
